The target of this test is MBS complex (membrane-bound sulfane sulfur reductase), monomeric 13-subunit complex (Pyrococcus furiosus). Briefly: cryo-EM structure; MBS purified in DDM, ~5 mg/ml; grids prepared under aerobic conditions; twofold symmetry applied; overall resolution 4.0 Å.

On to “MBS complex (membrane-bound sulfane sulfur reductase), monomeric 13-subunit complex”, for which the stoichiometry N (in general, the number of molecules, sites or subunits per partner or assembly) came to 2.

Values taken from PMC7684303.
